biological target: HLA-A*02:01 (Homo sapiens, UniProt P04439, D140Y/D185E/D98H/E176V/E277Q/G131W/G231S/I119V/I121R/I166T/I218V/L300P/L318F/N151K/N90K/P208A/P217A/Q86G/Q94H/R138H/R169H/T345S); assay: MHC binding assay (UV-ligand exchange, beta2m ELISA); conditions: binding to HLA-A*02:01, β2m ELISA
From the text: Candidate peptides for T cell based therapies according to the present invention were further tested for their MHC binding capacity (affinity). The individual peptide-MHC complexes were produced by UV-ligand exchange, where a UV-sensitive peptide is cleaved upon UV-irradiation, and exchanged with the peptide of interest as analyzed. Only peptide candidates that can effectively bind and stabilize the peptide-receptive MHC molecules prevent dissociation of the MHC complexes. To determine the yield of the exchange reaction, an ELISA was performed based on the detection of the light chain (β2m) of stabilized MHC complexes. The assay was performed as generally described in Rodenko et al. (Rodenko et al., 2006).
96 well MAXISorp plates (NUNC) were coated over night with 2 ug/ml streptavidin in PBS at room temperature, washed 4× and blocked for 1 h at 37° C. in 2% BSA containing blocking buffer. Refolded HLA-A*02:01/MLA-001 monomers served as standards, covering the range of 15-500 ng/ml. Peptide-MHC monomers of the UV-exchange reaction were diluted 100 fold in blocking buffer. Samples were incubated for 1 h at 37° C., washed four times, incubated with 2 ug/ml HRP conjugated anti-β2m for 1 h at 37° C., washed again and detected with TMB solution that is stopped with […]. Absorption was measured at 450 nm. Candidate peptides that show a high exchange yield (preferably higher than 50%, most preferred higher than 75%) are generally preferred for a generation and production of antibodies or fragments thereof, and/or T cell receptors or fragments thereof, as they show sufficient avidity to the MHC molecules and prevent dissociation of the MHC complexes.

Q: Which “Peptide exchange (MHC class I binding score, peptide exchange yield)” value (“Peptide exchange” for short) does the source give for “80 (VLTGQVHEL; listed as Homo sapiens) [compound 80]” here?
A: +++ (≧50 = +++)

Q: With “81 (ILAEEPIYI; listed as Homo sapiens) [compound 81]” as the substance, how does the “Peptide exchange” value read?
A: ++ (≧20% = ++)

Q: “82 (ILAEEPIYIRV; listed as Homo sapiens) [compound 82]” was tested. Which “Peptide exchange” value did it give?
A: +++ (≧50 = +++)

Q: How did the “Peptide exchange” value turn out when “83 (GLLENSPHL; listed as Homo sapiens) [compound 83]” was run?
A: ++ (≧20% = ++)

Q: “84 (FLLEREQLL; listed as Homo sapiens) [compound 84]” was tested. Which “Peptide exchange” value did it give?
A: ++++ (≧75% = ++++)

Q: With “85 (KLLDKPEQFL; listed as Homo sapiens) [compound 85]” as the substance, how does the “Peptide exchange” value read?
A: ++ (≧20% = ++)

Q: For “86 (SLFSNIESV; listed as Homo sapiens) [compound 86]”, which “Peptide exchange” value is on record?
A: +++ (≧50 = +++)

Q: Which “Peptide exchange” value does the source give for “87 (KLLSLLEEA; listed as Homo sapiens) [compound 87]” here?
A: +++ (≧50 = +++)

Q: How did the “Peptide exchange” value turn out when “88 (LLLPLELSLA; listed as Homo sapiens) [compound 88]” was run?
A: +++ (≧50 = +++)

Q: How did the “Peptide exchange” value turn out when “90 (AILNVDEKNQV; listed as Homo sapiens) [compound 90]” was run?
A: ++ (≧20% = ++)

Q: For “91 (LLPSIFLMV; listed as Homo sapiens) [compound 91]”, which “Peptide exchange” value is on record?
A: ++ (≧20% = ++)

Q: For “92 (RLFEEVLGV; listed as Homo sapiens) [compound 92]”, which “Peptide exchange” value is on record?
A: ++++ (≧75% = ++++)

Q: Which “Peptide exchange” value does the source give for “93 (RLYGYFHDA; listed as Homo sapiens) [compound 93]” here?
A: ++ (≧20% = ++)

Q: With “94 (YLDEVAFML; listed as Homo sapiens) [compound 94]” as the substance, how does the “Peptide exchange” value read?
A: +++ (≧50 = +++)

Q: “95 (KLIDEDEPLFL; listed as Homo sapiens) [compound 95]” was tested. Which “Peptide exchange” value did it give?
A: +++ (≧50 = +++)

Q: Which “Peptide exchange” value does the source give for “96 (ALDTTRHEL; listed as Homo sapiens) [compound 96]” here?
A: ++ (≧20% = ++)

Q: “98 (FVQEKIPEL; listed as Homo sapiens) [compound 98]” was tested. Which “Peptide exchange” value did it give?
A: +++ (≧50 = +++)

Q: Which “Peptide exchange” value does the source give for “99 (TLFGIQLTEA; listed as Homo sapiens) [compound 99]” here?
A: +++ (≧50 = +++)

Q: With “100 (ALQSFEFRV; listed as Homo sapiens) [compound 100]” as the substance, how does the “Peptide exchange” value read?
A: +++ (≧50 = +++)

Q: With “103 (YLADTVQKL; listed as Homo sapiens) [compound 103]” as the substance, how does the “Peptide exchange” value read?
A: ++ (≧20% = ++)

Q: For “105 (AMLASQTEA; listed as Homo sapiens) [compound 105]”, which “Peptide exchange” value is on record?
A: ++ (≧20% = ++)

Q: With “106 (VLLGSVVIFA; listed as Homo sapiens) [compound 106]” as the substance, how does the “Peptide exchange” value read?
A: ++ (≧20% = ++)

Q: Which “Peptide exchange” value does the source give for “107 (RVLPGQAVTGV; listed as Homo sapiens) [compound 107]” here?
A: ++ (≧20% = ++)

Q: How did the “Peptide exchange” value turn out when “108 (FIANLPPELKA; listed as Homo sapiens) [compound 108]” was run?
A: +++ (≧50 = +++)

Q: “109 (ILGSFELQL; listed as Homo sapiens) [compound 109]” was tested. Which “Peptide exchange” value did it give?
A: +++ (≧50 = +++)

Q: With “110 (QIQGQVSEV; listed as Homo sapiens) [compound 110]” as the substance, how does the “Peptide exchange” value read?
A: ++ (≧20% = ++)

Q: “111 (AQLEGKLVSI; listed as Homo sapiens) [compound 111]” was tested. Which “Peptide exchange” value did it give?
A: +++ (≧50 = +++)

Q: How did the “Peptide exchange” value turn out when “112 (ILAQDVAQL; listed as Homo sapiens) [compound 112]” was run?
A: +++ (≧50 = +++)

Q: How did the “Peptide exchange” value turn out when “113 (FLFLKEVKV; listed as Homo sapiens) [compound 113]” was run?
A: ++ (≧20% = ++)

Q: With “114 (LLFPSDVQTL; listed as Homo sapiens) [compound 114]” as the substance, how does the “Peptide exchange” value read?
A: ++ (≧20% = ++)

Q: With “115 (ILHGEVNKV; listed as Homo sapiens) [compound 115]” as the substance, how does the “Peptide exchange” value read?
A: ++ (≧20% = ++)

Q: “116 (ALLSSVAEA; listed as Homo sapiens) [compound 116]” was tested. Which “Peptide exchange” value did it give?
A: ++ (≧20% = ++)

Q: “117 (TLLEGISRA; listed as Homo sapiens) [compound 117]” was tested. Which “Peptide exchange” value did it give?
A: ++ (≧20% = ++)

Q: “119 (SLIEESEEL; listed as Homo sapiens) [compound 119]” was tested. Which “Peptide exchange” value did it give?
A: ++ (≧20% = ++)

Q: “122 (SIIDTELKV; listed as Homo sapiens) [compound 122]” was tested. Which “Peptide exchange” value did it give?
A: +++ (≧50 = +++)

Q: For “123 (QTAPEEAFIKL; listed as Homo sapiens) [compound 123]”, which “Peptide exchange” value is on record?
A: + (≧10% = +)

Q: How did the “Peptide exchange” value turn out when “124 (ALLLRLFTI; listed as Homo sapiens) [compound 124]” was run?
A: ++ (≧20% = ++)

Q: Which “Peptide exchange” value does the source give for “125 (AALEVLAEV; listed as Homo sapiens) [compound 125]” here?
A: +++ (≧50 = +++)

Q: Which “Peptide exchange” value does the source give for “126 (QLREAFEQL; listed as Homo sapiens) [compound 126]” here?
A: +++ (≧50 = +++)

Q: For “128 (SILTNISEV; listed as Homo sapiens) [compound 128]”, which “Peptide exchange” value is on record?
A: ++ (≧20% = ++)

Q: “129 (KMASKVTQV; listed as Homo sapiens) [compound 129]” was tested. Which “Peptide exchange” value did it give?
A: ++ (≧20% = ++)

Q: Which “Peptide exchange” value does the source give for “130 (QLYGSAITL; listed as Homo sapiens) [compound 130]” here?
A: +++ (≧50 = +++)

Q: “131 (SLYPHFTLL; listed as Homo sapiens) [compound 131]” was tested. Which “Peptide exchange” value did it give?
A: +++ (≧50 = +++)

Q: With “132 (ALLNNVIEV; listed as Homo sapiens) [compound 132]” as the substance, how does the “Peptide exchange” value read?
A: +++ (≧50 = +++)

Q: With “133 (FLDGRPLTL; listed as Homo sapiens) [compound 133]” as the substance, how does the “Peptide exchange” value read?
A: ++ (≧20% = ++)

Q: With “134 (SLYKSFLQL; listed as Homo sapiens) [compound 134]” as the substance, how does the “Peptide exchange” value read?
A: ++ (≧20% = ++)

Q: Which “Peptide exchange” value does the source give for “136 (LLWDAPAKC; listed as Homo sapiens) [compound 136]” here?
A: +++ (≧50 = +++)

Q: With “137 (KLIYKDLVSV; listed as Homo sapiens) [compound 137]” as the substance, how does the “Peptide exchange” value read?
A: ++ (≧20% = ++)

Q: “138 (GIINKLVTV; listed as Homo sapiens) [compound 138]” was tested. Which “Peptide exchange” value did it give?
A: ++ (≧20% = ++)

Q: Which “Peptide exchange” value does the source give for “139 (IILENIQSL; listed as Homo sapiens) [compound 139]” here?
A: +++ (≧50 = +++)

Q: How did the “Peptide exchange” value turn out when “140 (FLDSQITTV; listed as Homo sapiens) [compound 140]” was run?
A: +++ (≧50 = +++)

Q: How did the “Peptide exchange” value turn out when “141 (NIDINNNEL; listed as Homo sapiens) [compound 141]” was run?
A: ++ (≧20% = ++)

Q: How did the “Peptide exchange” value turn out when “142 (LLDAAHASI; listed as Homo sapiens) [compound 142]” was run?
A: ++ (≧20% = ++)

Q: With “143 (MLWESIMRV; listed as Homo sapiens) [compound 143]” as the substance, how does the “Peptide exchange” value read?
A: +++ (≧50 = +++)

Q: How did the “Peptide exchange” value turn out when “144 (FLISQTPLL; listed as Homo sapiens) [compound 144]” was run?
A: +++ (≧50 = +++)

Q: Which “Peptide exchange” value does the source give for “145 (ALEEKLENV; listed as Homo sapiens) [compound 145]” here?
A: +++ (≧50 = +++)

Q: For “146 (VVAAHLAGA; listed as Homo sapiens) [compound 146]”, which “Peptide exchange” value is on record?
A: ++ (≧20% = ++)

Reference: US9802997B2, “Peptides and combination of peptides for use in immunotherapy against various tumors” (immatics biotechnologies GmbH, priority 2015, dated 2017)
